B1: papA4 (dsDNA)
DNA 1: AGTATCACTGCCCGATCACCGGTCGCCC
DNA 2: GGGCGACCGGTGATCGGGCAGTGATACT
B2: cdh (dsDNA)
DNA 1: GCGAGCAGGGCTGCCGCACAGCGATCTT
DNA 2: AAGATCGCTGTGCGGCAGCCCTGCTCGC
B3: cyp123 (dsDNA)
DNA 1: AGATCCACCGCCGCATCACATCGGCGAT
DNA 2: ATCGCCGATGTGATGCGGCGGTGGATCT
B4: Rv1217c (dsDNA)
DNA 1: GAGGTCGCAGCCGAGCAACAGGTGGCAA
DNA 2: TTGCCACCTGTTGCTCGGCTGCGACCTC
B5: Rv0520 (dsDNA)
DNA 1: GCCCGCACAGCCACGCCGTAGCACCGGC
DNA 2: GCCGGTGCTACGGCGTGGCTGTGCGGGC
B6: PPE50 (dsDNA)
DNA 1: CTTTTCACAGCAAAGTCCCAGAAATGGC
DNA 2: GCCATTTCTGGGACTTTGCTGTGAAAAG
B7: espA -215 (dsDNA)
DNA 1: CGCATTGTCGCAGCGCAGTTGCAGGAGGGCAA
DNA 2: TTGCCCTCCTGCAACTGCGCTGCGACAATGCG
B8: icl -400 (dsDNA)
DNA 1: TCATCTCCCACGTTCACCCGGCTGGTTCG
DNA 2: CGAACCAGCCGGGTGAACGTGGGAGATGA
B9: phoP -55 (dsDNA)
DNA 1: AGACTACTGGCAACGAGCTTTCAGGAATTACAC
DNA 2: GTGTAATTCCTGAAAGCTCGTTGCCAGTAGTCT
B10: hsp (dsDNA)
DNA 1: CCGGACACAGCTAACTCACAACGAAGCA
DNA 2: TGCTTCGTTGTGAGTTAGCTGTGTCCGG
B11: lipF -572 (dsDNA)
DNA 1: AGACGTACAGCAAACTCCCAGTCATACA
DNA 2: TGTATGACTGGGAGTTTGCTGTACGTCT
B12: pks3 -236 (dsDNA)
DNA 1: CGACGTCTGGTAGCGGCATGGCAACGGCCTGTG
DNA 2: CACAGGCCGTTGCCATGCCGCTACCAGACGTCG
B13: fadD21 (dsDNA)
DNA 1: CCTGTTTCAGCACATGCACAGCATTGCA
DNA 2: TGCAATGCTGTGCATGTGCTGAAACAGG
B14: pks2 (dsDNA)
DNA 1: AAAGACACAGCTACATCGAAGGATTGCT
DNA 2: AGCAATCCTTCGATGTAGCTGTGTCTTT
B15: icl -301 (dsDNA)
DNA 1: CCCAAGGCAGTCGCCTCGCTGTTCAATCTGT
DNA 2: ACAGATTGAACAGCGAGGCGACTGCCTTGGG
B16: Rv3881c (dsDNA)
DNA 1: ATGGTCACAGTCGGGCCACAGTTCGAG
DNA 2: CTCGAACTGTGGCCCGACTGTGACCAT
B17: Rv2010 (dsDNA)
DNA 1: GAACTCGTGGCCGCCGCACAGCGGATGT
DNA 2: ACATCCGCTGTGCGGCGGCCACGAGTTC
B18: Rv1639c (dsDNA)
DNA 1: CGGATCACAGGAAACCCCCAACAAATCA
DNA 2: TGATTTGTTGGGGGTTTCCTGTGATCCG
B19: icl -343 (dsDNA)
DNA 1: GACCGCGCTGTTACAACGCTCACATATGTGG
DNA 2: CCACATATGTGAGCGTTGTAACAGCGCGGTC
B20: Rv2331 (dsDNA)
DNA 1: GTCCTCGCAGCAAGAAAACAGCGAAAGC
DNA 2: GCTTTCGCTGTTTTCTTGCTGCGAGGAC
B21: Rv2633c (dsDNA)
DNA 1: TGATTCACAGCTACCTCACATTAATGGG
DNA 2: CCCATTAATGTGAGGTAGCTGTGAATCA
B22: phoP -64 (dsDNA)
DNA 1: GACTGTTAGCAGACTACTGGCAACGAGCTTTC
DNA 2: GAAAGCTCGTTGCCAGTAGTCTGCTAACAGTC
B23: sirA (dsDNA)
DNA 1: CGTCTCCCAGCGGATTCCCGGGTCGGCC
DNA 2: GGCCGACCCGGGAATCCGCTGGGAGACG
B24: cfp2 (dsDNA)
DNA 1: TCGCTCACAGCTACGACACAGACTTGCC
DNA 2: GGCAAGTCTGTGTCGTAGCTGTGAGCGA
B25: cadI (dsDNA)
DNA 1: CGGTACACAGCGCTTGCAGGGCTTCAGG
DNA 2: CCTGAAGCCCTGCAAGCGCTGTGTACCG
B26: umaA (dsDNA)
DNA 1: TGACGCAAGGCGAGATCACAGACCGAGA
DNA 2: TCTCGGTCTGTGATCTCGCCTTGCGTCA
B27: Rv0964c (dsDNA)
DNA 1: GCGCGCACGGCACACGCACCGCATCGGC
DNA 2: GCCGATGCGGTGCGTGTGCCGTGCGCGC
B28: icl -350 (dsDNA)
DNA 1: GGTTGGTCGACCGCGCTGTTACAACGCTCAC
DNA 2: GTGAGCGTTGTAACAGCGCGGTCGACCAACC
B29: fas (dsDNA)
DNA 1: CGGCGTAGAGCGAATTCCCAGCATAACG
DNA 2: CGTTATGCTGGGAATTCGCTCTACGCCG
B30: ptrBa -162 (dsDNA)
DNA 1: TTGTCCGCAGCTGGCTCACCGGCTCCGA
DNA 2: TCGGAGCCGGTGAGCCAGCTGCGGACAA
B31: icl +20 (dsDNA)
DNA 1: ACCCCGAAGAGCGCGGAGCAGATCCAGCAGG
DNA 2: CCTGCTGGATCTGCTCCGCGCTCTTCGGGGT
B32: Rv3877 (dsDNA)
DNA 1: CTCGGCGCAGCGCGCGCTCAGCGACGCC
DNA 2: GGCGTCGCTGAGCGCGCGCTGCGCCGAG
B33: Rv3312a (dsDNA)
DNA 1: TGGGTCACAGCGAGTAATCAGCAAGTTC
DNA 2: GAACTTGCTGATTACTCGCTGTGACCCA
B34: aroG (dsDNA)
DNA 1: TTCGTCTCATCACGTCCACAGACGATGC
DNA 2: GCATCGTCTGTGGACGTGATGAGACGAA

We go through 34 molecules from paper PMC4283936.

The target of the series is PhoP (Mycobacterium tuberculosis, UniProt P71814 1-247). Briefly: ITC.
B1: the binding result is listed as “no binding”.

Usually Kd stands for the constant that tells how readily two partners part at equilibrium. A high value points to weaker binding. Take B2: the equilibrium dissociation constant (Kd) turned out to be 935 ± 52 nM.

In the case of B3, the binding result is listed as “no binding”.

Regarding B4, the equilibrium dissociation constant (Kd) stood at 588 ± 17 nM.

For B5, the Kd amounted to 472 ± 20 nM.

Regarding B6, the Kd worked out at 45.7 ± 1.7 nM.

In the case of B7, the affinity, expressed as Kd, was 1590 ± 50 nM.

For B8, the binding result was “no binding”.

The molecule B9 gave a Kd of 104 ± 10 nM.

Consider B10, for which binding was put at a Kd of 51.5 ± 4.3 nM.

B11: the Kd is 115 ± 8 nM.

With B12, the Kd came out at 130 ± 11 nM.

In the case of B13, the Kd was 50.3 ± 4.3 nM.

B14 returned a Kd of 154 ± 12 nM.

As for B15, the binding result is “no binding”.

B16: the Kd came to 714 ± 51 nM.

With B17, the Kd stood at 637 ± 16 nM.

The molecule B18 had a Kd of 198 ± 12 nM. Compared with the last molecule, the Kd is about 3.2-fold lower.

For the molecule B19, the binding result is recorded as “no binding”.

Take B20: the affinity, expressed as Kd, was 130 ± 6.1 nM.

Turning to B21, the affinity, expressed as Kd, was 37 ± 3.7 nM.

As to B22, the binding result was “no binding”.

With B23, binding was characterised by a dissociation constant (Kd) of 332 ± 17 nM.

With B24, the affinity, expressed as Kd, was 21.4 ± 1.6 nM.

As to B25, the Kd was 403 ± 20 nM.

B26 returned a Kd of 1200 ± 58 nM.

Turning to B27, the Kd came out at 4350 ± 189 nM.

For B28, the binding result is recorded as “no binding”.

On to B29, for which the Kd amounted to 144 ± 6 nM.

In turn, B30 had a Kd of 980 ± 77 nM.

With B31, the binding result is listed as “no binding”.

As to B32, binding was characterised by a dissociation constant (Kd) of 1150 ± 66 nM.

B33 yielded a dissociation constant Kd of 160 ± 8 nM.

Take B34: the equilibrium dissociation constant (Kd) came to 1160 ± 41 nM.
